According to article doi:10.1101/336578:
Read-outs that look alike come from different tables or passages of the source.

Legend:
[1] = biological target: KS-PPT di-domain construct of the S. cerevisiae FAS α-chain (S. cerevisiae); assay: SEC
[2] = biological target: KS-PPT di-domain construct of the S. cerevisiae FAS α-chain (S. cerevisiae); assay: SEC; remark: listed apart in the source

KS-PPT di-domain construct of the S. cerevisiae FAS α-chain (domain or fragment)
stoichiometry N [1]: 2.5
stoichiometry N [2]: 2
